Source: patent publication US9073976B2, “ND2 peptides and methods of treating neurological disease” (NoNO Inc., priority 2010, dated 2015)
“Also recorded” adds a separate entry of the source. No end group written: not given here. *: point of attachment. Myristoyl = CCCCCCCCCCCCCC(=O)*

Assays:
Src 40-58 [1] = target: T1, Src 40-58 (Homo sapiens, UniProt P12931, A55V); assay: Dot blot of GST-ND2 fragments probed with biotinylated Src 40-58; format: binding; details: GST-fusion proteins spotted 1-10 ug, biotinylated peptide ~15 ug/ml, 2 hours
T1 construct: KPASADGHRG P SAAFVPAA
Protocol: GST-fusion proteins were designed using different fragments of ND2 and expressed and purified using standard protocols. These purified proteins were spotted onto membranes for probing with biotinylated Src 40-58 peptide or a scrambled control peptide (sSrc 40-58). In general, 1-10 ug of peptide or recombinant protein was spotted onto nitrocellulose and dried overnight. Membranes were blocked with 5% milk for 1 h at room temperature, then incubated with biotinylated peptides (˜15 ug/ml) for 2 hours the washed using standard wash buffers. Bound probe was detected using a short incubation with streptavidin conjugated to horseradish peroxidase (SA-HRP) and standard detection reagents, predominantly chemiluminescence kits. […] Further GST-constructs were made to narrow the core Src binding regions (FIG. 2A). Dot blots were made with these constructs and tested for their ability to capture biotinylated Src 40-58 (FIG. 2B).
(§1) Further GST constructs were made to identify the amino acid sequences in ND2.1.4 responsible for binding to Src 40-58 (FIG. 3A). Although these sequences are minimally responsible for binding, sequences corresponding to ND2 these sequences as well as those flanking them could be used for inhibition of the Src-ND2 interaction. […] As before, interactions with all of the fragments were confirmed in an ELISA assay (FIG. 3C), and the top binders were ND2 310-321, ND2 289-309, ND2 299-318, ND2 307-321 and full length ND2. […] All fragments tested were able to bind Src40-58 more strongly than the negative control peptide sSrc 40-58.

[2] = test system: PACAP-enhanced NMDA-evoked currents in CA1 neurons; assay: Patch clamp of PACAP-enhanced NMDA-evoked currents in isolated CA1 neurons; format: cell-based, rat; details: PACAP 1 nM in patch pipette, peptide 6 mM, 25 to 30 minutes after PACAP
Text: Pituitary Adenylate Cyclase-activating Polypeptide (PACAP) selectively increases NMDA receptor mediated responses in rat neurons, and it is thought that this peptide is involved in the regulation of synaptic plasticity as well as both long term potentiation and depression. To examine the effect of ND2 310-321 and Src 40-49 on PACAP-enhanced NMDA-evoked currents, isolated CA1 neurons were subjected to a series of patch clamp experiments in the presence or absence of these peptides. […] ND2 310-321 can prevent PACAP-induced potentiation. Similar experiments were also performed using the Src-selective inhibitory peptide, Src(40-58) (14 mM), or the truncated peptide, Src(40-49) (6 mM). The responses prior to application of PACAP were normalized the responses at 25 to 30 minutes following application of PACAP. The bar graph indicates three groups of recordings from neurons and indicated the relative change in peak NMDAR currents under the three conditions. ND2 310-321, but not Src40-49, inhibits PACAP-enhanced NMDA-evoked currents. Thus, ND2 310-321 can be used to block PACAP enhanced NMDA-evoked signaling and can therefore be used in many neurological diseases and disorders associated with impaired with long term potentiation (e.g., aging, Alzheimer's, neurodegenerative diseases and neuronal disorders affect memory).

Src 40-49 [3] = target: T2, Src 40-49 (Homo sapiens, UniProt P12931); assay: ELISA of ND2 constructs binding Src 40-49; details: FIG. 4B
T2 construct: KPASADGHRG
Text: (§2) We next examined the ability of the ND2 constructs to bind to a shorter version of the Src binding domain—Src 40-49 (FIGS. 4A, B). ND2 310-321, ND2 307-318, and ND2 310-318 were the top binders of Src 40-49 by dot blot analysis (FIG. 4A).

Src 40-58 [4] = target: T1, Src 40-58; assay: ELISA of coated ND2 constructs with biotin-Src 40-58; format: binding; details: biotin-Src 40-58 at 6 uM
Protocol: GST-ND2, GST-ND2.1 or GST-ND2.1.4 were coated onto ELISA wells by incubating at the indicated concentration under standard conditions. Wells were blocked using 5% milk, and either biotin-Src 40-58 (FIG. 2C top) or biotin-sSrc 40-58 (bottom) were incubated at 6 uM.
as §1

Src 40-49 [5] = target: T2, Src 40-49; assay: Dot blot of ND2 constructs binding Src 40-49; details: FIG. 4A
Text: as §2

rats subjected to 3PVO = assay: Three pial vessel occlusion (3PVO) model of stroke, infarct volume; format: in vivo, rat
Protocol: The efficacy of ND2 inhibitors in the treatment of stroke was examined using the three pial vessel occlusion (3PVO) model of stroke. This is a permanent model of stroke that creates small but consistent infarcts at 24 hours.
Male Sprague Dawley rats (n=10 in each group) were surgically subjected to permanent occlusion of the pial vessels. One hour post-surgery, animals were given an intravenous injection of Saline, Tat-NR2B9c (Aarts et al, Science, 2002), Src 40-49-Tat or Tat-ND2 310-321 and allowed to further recover in their cages. 24 hours after surgery, brains were harvested, sliced and incubated with TTC to visualize the areas of infarction. The infarct volume of each animal was determined, as well as the average volumes for each group of ten.
Both peptides were myristoylated via an amide bond to the alpha-amino group of the N-terminal amino acid of the peptide.
Male Sprague Dawley rats (n=10 in each group) weighing between 230 and 290 g were used for this study. Experiments were performed on fasted rats (Free overnight access to water but not food). For permanent three pial vessel occlusion (3PVO) was performed as described previously (Forder J et al., 2005, supra). In brief, rats were anesthetized with a 0.5 ml/kg intramuscular injection of ketamine (100 mg/kg), acepromazine (2 mg/kg), and xylazine (5 mg/kg), supplemented with one-third of the initial dose as required. An anal temperature probe was inserted, and the animal was placed on a heating pad maintained at 37° C. The skull was exposed via a midline incision and scraped free of tissue. Using a dissecting microscope and a pneumatic dental drill, a 6- to 8-mm cranial window was made over the right somatosensory cortex (2 mm caudal and 5 mm lateral to bregma) by drilling a rectangle through the skull and lifting off the piece of skull while keeping the dura intact. The 3 pial arteriolar middle cerebral artery branches around the barrel cortex were selected and electrically cauterized through the dura. After the cauterizations, the scalp was sutured. […]

Tat-ND2 310-321 = target: T3, Tat-ND2 310-321 (Homo sapiens, UniProt P03891); assay: ELISA plate coated with Tat-ND2 310-321, binding of biotinylated Src peptides; details: FIG. 5C
T3 construct: 10; Tat-ND2 310-321; […]
Protocol: (§3) Src40-49-Tat indicate a fusion peptide in which the human HIV-1 tat protein transduction domain [[…]] […] (SEQ ID NO:10). […] The peptides were plated at a concentration of ˜5 uM.

[6] = Arterial blood pressure after rapid high-dose intravenous bolus; details: ~25 mg/kg bolus injection into the tail vein
Protocol: Rats with surgically implanted devices to measure arterial pressure were dosed with ˜25 mg/kg of the respective peptides as a bolus injection into the tail vein at 10 minutes post monitoring.

ND2 310-321 = target: T4, ND2 310-321 (Homo sapiens, UniProt P03891); assay: Dot blot of Src fragments probed with biotinylated ND2 310-321; format: binding; details: FIG. 5A
T4 construct: 7; NVKMKWQFEHTK
Protocol: as §3

[7] = target: T5, ND2, Src, NMDAR subunits, and PSD95 in hippocampal neurons (Rattus norvegicus, UniProt P11662+Q9WUD9); assay: Immunocytochemistry colocalization in 14DIV hippocampal neurons; format: cell-based; details: 1 uM peptide for 1 h, day 14 neurons
T5 construct: endogenous in cells; host or cells: primary hippocampal neurons from E17/E18 Wistar rats, 14 DIV
Protocol: A series of experiments was performed to examine the localization of ND2, Src, NMDAR subunits, and PSD95 in hippocampal neurons by immunocytochemistry in the presence of Tat, Tat-ND2 310-321, or Src 40-49-Tat. Briefly, hippocampal neurons were isolated from embryonic day #17/E18 Wistar rats, and cultured in neurobasal media containing coverslips with B27 and glutamax. Cells were then treated for 1 hr with luM peptide before fixing by standard methods. Proteins were visualized using specific antibodies and secondary antibodies coupled to fluorescent molecules. Colocalization of fluorescence was calculated by merging the images in Photoshop and calculating the % colocalized between pairs as the total colocalized fluorescence clusters divided by the total number of clusters (e.g., % colocalized ND2 with Src=(total colocalized)/(total ND2 clusters); % colocalized Src with ND2=(total colocalized)/(total Src clusters)).
Hippocampal neurons cultured on coverslips were treated with 1 uM of Src 40-49-Tat, Tat-ND2 310-321 or Tat for 1 h at the day 14. Then neurons were incubated in 4% paraformaldehyde and 4% sucrose in phosphate-buffered saline (PBS) for 10 minutes followed by 5 minutes […] at room temperature (RT). Cells were permeabilized with 0.25% Triton X-100 in PBS for 5 minutes and by treatment with 5% donkey serum in PBS for 30 minutes at RT. The cultures were incubated with a mixture of the primary antibodies, raised in various species, in 0.25% Triton X-100 PBS for 2 hours at RT, washed, and incubated for 1 hour at RT with a mixture of species-specific secondary antibodies all raised in donkey and conjugated to either Texas Red, or FITC fluorophores (1:200 dilution in 0.25% Triton X-100 PBS). The coverslips were washed with PBS and mounted using ProLong Gold antifade reagent (Invitrogen). Images were collected using a 60× pan-fluor objective on a Nikon Eclipse TE 200 microscope. The images were analyzed with PhotoShop 7 (Adobe, San Jose, Calif.). Brightness and contrast were adjusted, sharpened using the unsharpen mask tool, and the images were merged for color colocalization.
For quantification of the colocalization, the maximum intensities of the fluorophore channels were normalized and the background fluorescence of each channel seen in the dendrites was subtracted, the color images were merged. Two clusters in two different channels were considered colocalizing when at least 66% of the surface of one clusters in one of the two channels overlapped with a clusters in the other channel. For each combination of antibodies, three independent immunofluorescence experiments were done. Each measurement was taken from a 50-m-long dendritic segment (with an average width of 2 m). Colocalization was expressed as the percent of the total clusters analyzed.

[8] = target: T6, binding of biotinylated Src40-49 to ND2 310-321 (Homo sapiens, UniProt P03891+P12931); assay: Competition ELISA, binding of biotinylated Src40-49 to coated ND2 310-321; details: FIG. 5D, FIG. 7
T6 construct: 7; NVKMKWQFEHTK; KPASADGHRG
Protocol: Competition ELISAs were also performed. […] In a similar manner, ND2 constructs bearing amino acid sequences from the 300-321 region are able to act as inhibitors of the interaction between ND2 and Src.

## NVKMKWQFEHTK [ND2 310-321]
Src 40-58 [1]
  binding of biotinylated Src 40-58 (dot blot): binding with high relative affinity
[2]
  effect on PACAP-enhanced NMDA-evoked currents: inhibits
Src 40-49 [3]
  binding of Src 40-49 (ELISA): strongest binding
Src 40-58 [4]
  binding of biotin-Src 40-58 (ELISA): top binders
Src 40-49 [5]
  binding of Src 40-49 (dot blot): top binders; also recorded: strong binding

## NVKMKWQFE [ND2 310-318]
Src 40-49 [5]
  binding of Src 40-49 (dot blot): top binders; also recorded: strong binding

## NLYFYLRLIYSTSITLLPMSNNVKMKWQFEHTK (not fully specified) [ND2.1.4, GST-fusion protein of ND2 fragment AA 289-321]
Src 40-58 [1]
  binding of biotinylated Src 40-58 (dot blot): most effective sub fragment for binding Src 40-58
Src 40-58 [1]; listed as ND 2.1.4
  binding of biotinylated Src 40-58 (dot blot): better than ND2.1.3
Src 40-58 [4]
  binding of biotin-Src 40-58 (ELISA): concentration-dependent manner

## MSNNVKMKWQFEHTK [ND2 307-321]
Src 40-58 [1]
  binding of biotinylated Src 40-58 (dot blot): binding was seen
Src 40-58 [4]
  binding of biotin-Src 40-58 (ELISA): top binders

## NLYFYLRLIYSTSITLLPMSN [ND2 289-309]
Src 40-58 [1]
  binding of biotinylated Src 40-58 (dot blot): binding was seen
Src 40-58 [4]
  binding of biotin-Src 40-58 (ELISA): top binders

## myristoyl- MSNNVKMKWQFEHTK (Myristoyl-MSNNVKMKWQFEHTK) [Myr2-ND2]
Rats subjected to 3PVO; given intravenously 1 hour after onset of stroke, relative to Tat-ND2
  protection against damage from the stroke, second experiment (FIG. 22): equivalent or superior protection

## Bio-sSrc 40-49: biotinylated scrambled control peptide (GAAKRPSDGH; also: biotinylated, position not given here)
Tat-ND2 310-321
  binding to coated Tat-ND2 310-321 (ELISA): no binding was seen

## ITLLPMSNNVKMKWQFEHTK [ND2 302-321]
Src 40-58 [1]
  binding of biotinylated Src 40-58 (dot blot): binding was seen

## YGRKKRRQRRRKLSSIESDV [Tat-NR2B9c]
Rats subjected to 3PVO; 3 nmol/g intravenous one hour post-surgery, 24 hours after surgery, n=10
  decline in infarct volume: approximately 40%
[6]
  mean arterial blood pressure after bolus: about one half of normal

## bio-Src 40-49: biotinylated Src 40-49 peptide (KPASADGHRG; also: biotinylated, position not given here)
Tat-ND2 310-321
  binding to coated Tat-ND2 310-321 (ELISA): able to bind in a concentration dependent manner

## KPASADGHRG [Src40-49]
[2]; listed as Src 40-49
  effect on PACAP-enhanced NMDA-evoked currents: does not
ND2 310-321
  binding of biotinylated ND2 310-321 (dot blot): bound ND2 310-321

## MSNNVKMKWQFE [ND2 307-318]
Src 40-49 [5]
  binding of Src 40-49 (dot blot): top binders; also recorded: strong binding

## STSITLLPMSNNVKMKWQFE [ND2 299-318]
Src 40-58 [1]
  binding of biotinylated Src 40-58 (dot blot): binding was seen
Src 40-58 [4]
  binding of biotin-Src 40-58 (ELISA): top binders

## YGRKKRRQRRR [Tat]
[7]
  colocalization of Src and ND2: does not

## YGRKKRRQRRRNVKMKWQFEHTK [Tat-ND2 310-321]
[6]
  mean arterial blood pressure after bolus: about one half of normal

## YGRKKRRQRRRKPASADGHRG [Tat-Src40-49]
[8]
  inhibition of binding of biotinylated Src40-49 to ND2 310-321 (competition ELISA): inhibited
ND2 310-321
  binding of biotinylated ND2 310-321 (dot blot): bound ND2 310-321

B1: ND2.1: GST-fusion protein of ND2 sub fragment AA239-321 (protein)
chain: WLTPLIPSTLLSLGGLPPLTGFLPKWAIIEEFTKNNSLIIPTIMATITLLNLYFYLRLIYSTSITLLPMSNNVKMKWQFEHTK
modifications: left off: a dimerising Fc or GST
Src 40-58 [1]
  binding of biotinylated Src 40-58 (dot blot): can also bind Src 40-58; also recorded: better than ND2.1.3
Src 40-58 [4]
  binding of biotin-Src 40-58 (ELISA): concentration-dependent manner
